According to US20100196385A1 (AstraZeneca / MedImmune, published 2010):

T1: human Dll1 (human, UniProt O00548 18-723)
T1 construct: whole, on cells
T1 sequence (looked up): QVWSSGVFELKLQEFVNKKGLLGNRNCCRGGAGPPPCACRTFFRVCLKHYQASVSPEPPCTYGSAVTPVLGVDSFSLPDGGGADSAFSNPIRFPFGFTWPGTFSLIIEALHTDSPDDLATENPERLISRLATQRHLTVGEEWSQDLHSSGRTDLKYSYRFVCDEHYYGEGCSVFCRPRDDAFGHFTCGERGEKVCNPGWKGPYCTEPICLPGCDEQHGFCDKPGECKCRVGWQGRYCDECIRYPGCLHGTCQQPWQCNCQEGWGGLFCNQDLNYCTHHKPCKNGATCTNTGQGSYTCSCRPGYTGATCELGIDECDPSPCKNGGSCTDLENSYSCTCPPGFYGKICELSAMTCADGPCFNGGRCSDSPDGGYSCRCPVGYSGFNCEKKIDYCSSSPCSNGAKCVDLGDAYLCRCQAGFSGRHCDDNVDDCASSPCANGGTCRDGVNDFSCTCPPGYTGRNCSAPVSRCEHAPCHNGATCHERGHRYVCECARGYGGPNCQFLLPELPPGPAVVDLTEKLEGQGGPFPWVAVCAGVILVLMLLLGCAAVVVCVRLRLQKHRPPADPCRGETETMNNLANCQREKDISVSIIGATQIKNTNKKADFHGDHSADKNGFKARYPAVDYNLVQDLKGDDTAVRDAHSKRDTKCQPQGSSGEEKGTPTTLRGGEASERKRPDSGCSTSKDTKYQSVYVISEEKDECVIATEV

B1: 4B4 (antibody, IgG4, V domains shown)
VH: QVLLIQSGAEVKKPGASVQVSCKASGYTFTNYGVIWVRQAPGQGLEYMGWISAYNGNTNYAQKLQDRVTMTSDTSTTTAYMELRSLRSDDTAVYYCARELGSSFDYWGQGTLVTVSS
VL: SYELTQPPSVSVSPGQTARITCSGDALPKKYAYWYQQKSGQAPVLVIYEDIKRPSGIPERFSGSSSGTMATLTISGAQVEDEADYYCFSTDNSGDHSVFGGGTKLTVL
notes: Fully human; used for IgG4 rows and where no isotype is printed; also called 4B4 IgG4; 4B4.1
B2: 2H10 (antibody, IgG4, V domains shown)
VH: QVQLVESGGGVVQPGRSLRLSCAASGFTFSRHGMHWVRQAPGKGLEWVAVVWFDGSNIYYADSVKGRFTISRDNSKNTLYLQMNSLRAEDTAMYYCARDSRIAAADYWGQGTLVTVSS
VL: SYELTQPPSVSVSPGQTVSITCSGDKLGDKYVCWYQQKPGQSPVLVIYQESKRPSGIPERFSGSSSGNTATLTISGTQAMDEADYYCQTWDSSLVVFGGGTKLTVL
notes: Fully human; used for IgG4 rows and where no isotype is printed; also called 2H10 IgG4
B3: 21H3 (antibody, IgG4, V domains shown)
VH: QVQLVQSGAEVKKPGASVKVSCKASGYTFTNYGITWVRQAPGQGPEWMGWISAYNGNTNYAQKLQDRVTVTTDTSTSTAYMELRSLRSDDTAVYYCARDRVPRIPVTTEAFDIWGQGTMVTVSS
VL: QSVLTQPPSASGTPGQRVTISCSGSSSNIGSYFVYWYQQLPGTAPKLLIYRNNQRPSGVPDRFSGSESGTSASLAISGLRSEDEADYYCAAWDDSLSGHWVFGGGTRLTVL
notes: Fully human; used for IgG4 rows and where no isotype is printed; also called 21H3 IgG4
B4: 9G8 (antibody, IgG4, V domains shown)
VH: QLQLQESGPGLVKPSETLSLSCTVSGGSISSSSSYWGLIRQPPGKGLEWIGSIYYSGSTYYSPSLKSRVSISVDTSKNQFSLKLSSVTAADTAVYFCARQGYGGHPDVFDIWGQGTMVTVSS
VL: SSELTQSPSVSVSPGQTARITCSGDKLGDVYVCWYQQKTGQSPVLVIYEDTKRPSGIPERFSGSNSGNTATLTISGTQVMDEADYYCQAWDSTTAVIFGGGTKLTVL
notes: Fully human; used for IgG4 rows and where no isotype is printed; also called 9G8 IgG4

These binders were tested against T2, full length human DLL4 (human, UniProt Q9NR61 27-685) (assay: FACS titration, HEK293 cells with human DLL4).
T2 construct: whole, on cells; also called native DLL4 expressed in HEK293 cells
T2 sequence (Q9NR61 27-685): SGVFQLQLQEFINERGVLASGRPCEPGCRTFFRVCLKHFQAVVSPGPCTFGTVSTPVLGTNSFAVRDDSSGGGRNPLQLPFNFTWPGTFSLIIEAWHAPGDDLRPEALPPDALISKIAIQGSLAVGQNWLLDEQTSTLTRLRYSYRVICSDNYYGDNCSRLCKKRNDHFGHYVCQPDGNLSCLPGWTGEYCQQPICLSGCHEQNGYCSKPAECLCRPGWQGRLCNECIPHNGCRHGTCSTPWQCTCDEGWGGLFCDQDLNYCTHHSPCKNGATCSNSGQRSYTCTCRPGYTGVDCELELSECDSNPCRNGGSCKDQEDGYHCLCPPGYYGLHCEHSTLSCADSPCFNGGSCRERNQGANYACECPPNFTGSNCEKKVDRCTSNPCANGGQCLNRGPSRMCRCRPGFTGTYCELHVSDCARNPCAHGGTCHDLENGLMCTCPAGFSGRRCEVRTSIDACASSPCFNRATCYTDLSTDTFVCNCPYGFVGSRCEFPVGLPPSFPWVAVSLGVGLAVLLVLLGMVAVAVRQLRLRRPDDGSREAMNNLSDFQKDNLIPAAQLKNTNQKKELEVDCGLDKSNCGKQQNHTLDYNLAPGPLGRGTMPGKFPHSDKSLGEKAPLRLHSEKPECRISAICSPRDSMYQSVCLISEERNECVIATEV
How it was run: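 Antibody titration on HEK293 cells expressing full-length human DLL4, detected with anti-human IgG-Fc-Cy5 plus 7AAD for 30 minutes at 4° C. by flow cytometry. KD estimated by nonlinear fit of mean fluorescence vs total mAb concentration, with receptor number, background and proportionality constant floating.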

Row | Kd [nM] | Binder
1 | 0.516 | B1
2 | 0.882 | B2
3 | 0.359 | B3
4 | 0.999 | B4

The binders below were run against T2, full length human DLL4 (assay: FMAT competition, supernatant vs Alexa-647 human Notch1/Fc, 293T cells with human DLL4).
Method: Transfected and untransfected 239T cells were reconstituted in PBS containing 2% FCS and 5000 transfected and 17500 non-transfected cells were plated in 20 μl into wells of a 384-well tissue culture plate (Corning Costar, catalog #3712). Subsequently, 20 μl of hybridoma supernatant was added and plates were incubated at 4° C. for 1 h, at which time 20 μl of Alexa-647 labeled human Notch1/Fc was added at a final concentration of 6.7 ng/ml. After a further 3 h incubation at 4° C., the amount of bound Notch1/Fc was determined by reading the fluorescence in each well using an FMAT 8200 instrument (Applied Biosystems). Results are expressed as % inhibitions with the minimum inhibition in the assay being determined by the effects of non-DLL4 binding supernatants prepared in a similar way as described in example 2, and the maximum inhibition being defined as the signal obtained in the presence of a saturating concentration of unlabeled Notch1/Fc. N.T.=not tested

Row | Mean % inhibition [%] | % inhibition n = 1 [%] | % inhibition n = 2 [%] | % inhibition n = 3 [%] | Binder
5 | 121 |  |  |  | B1
6 | 127 | 107 | 150 | 124 | B2
7 | 118 | 112 | 98 | 143 | B4

What follows are binders tested against DLL4 extracellular domain (R&D systems, catalog #1506-D4/CF) (UniProt Q9NR61 27-529, limits assumed) (assay: cell-based or functional assay).
Chain of DLL4 extracellular domain (R&D systems, catalog #1506-D4/CF) (Q9NR61 27-529 limits assumed): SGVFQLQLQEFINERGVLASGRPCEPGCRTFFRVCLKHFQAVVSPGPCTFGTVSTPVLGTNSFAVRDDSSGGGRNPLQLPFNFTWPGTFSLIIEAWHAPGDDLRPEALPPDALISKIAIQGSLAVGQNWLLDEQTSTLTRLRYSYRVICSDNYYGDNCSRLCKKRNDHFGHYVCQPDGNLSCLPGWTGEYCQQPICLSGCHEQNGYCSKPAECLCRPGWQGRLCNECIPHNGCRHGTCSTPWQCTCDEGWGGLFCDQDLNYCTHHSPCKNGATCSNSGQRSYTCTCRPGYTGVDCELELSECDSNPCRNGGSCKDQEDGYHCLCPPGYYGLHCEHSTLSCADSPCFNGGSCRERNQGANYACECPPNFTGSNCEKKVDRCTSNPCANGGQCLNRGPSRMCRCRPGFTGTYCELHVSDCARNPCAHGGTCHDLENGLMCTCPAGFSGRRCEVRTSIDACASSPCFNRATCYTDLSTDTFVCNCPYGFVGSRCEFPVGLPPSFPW

Row | % inhibition 1 µg/ml, AVERAGE (HUVEC proliferation on coated DLL4) [%] | % inhibition 1 µg/ml, N = 1 (HUVEC proliferation on coated DLL4) [%] | % inhibition 1 µg/ml, N = 2 (HUVEC proliferation on coated DLL4) [%] | % inhibition 10 µg/ml, AVERAGE (HUVEC proliferation on coated DLL4) [%] | % inhibition 10 µg/ml, N = 1 (HUVEC proliferation on coated DLL4) [%] | % inhibition 10 µg/ml, N = 2 (HUVEC proliferation on coated DLL4) [%] | Binder
8 | 93 | 101 | 84 | 97 | 102 | 92 | B1
9 | 93 | 98 | 87 | 103 | 110 | 95 | B2
10 | 93 | 86 | 99 | 89 | 88 | 89 | B3
11 | 62 | 52 | 71 | 77 | 72 | 82 | B4

Each binder was assayed against T1, human Dll1 (assay: FACS, up to 300 µg/ml, HEK-293 cells stably overexpressing human Dll1).

Row | fold over background [fold] | Binder
12 | < 2.5 | B1
13 | < 2.5 | B2
14 | < 2.5 | B4

Each binder was assayed against T2, full length human DLL4 (assay: FACS competition, unlabeled antibody vs competitor Alexa-647 21H3RK, HEK293 cells with human DLL4).
Method: The ability of the purified DLL4 antibodies to inhibit the binding of other DLL4 antibodies to human DLL4 was assessed using a FACS assay. Briefly, antibodies were directly labelled with Alexa-647 using a commercially available labelling kit (e.g. Molecular Probes catalog #A30009, A-20186) as per the manufacturer's instructions. To determine the level of cross-competition, unlabelled anti-DLL4 antibodies (final concentration: 10-0.01 μg/ml) diluted in PBS containing 2% FCS were added to DLL4-expressing HEK 293 cells (as described in example 6; 50000 cells/well diluted in PBS containing 2% FCS) and incubated for 1 h at 4° C. Subsequently, Alexa-647 labeled anti-DLL4 antibodies were added at a final concentration of 0.1 μg/ml and plates were incubated for a further 1 h at 4° C. prior to washing and reading on a FACSCalibur instrument. Data that summarizes the ability of unlabeled antibodies (10, 1, 0.1 μg/ml) to compete with labeled 21H3RK for binding to human DLL4 is included in FIG. 3. Additional data that summarizes the ability of unlabeled antibodies to compete with labeled 21H3RK and 4B4 for binding to human DLL4 is included in Table 22.

Row | IC50 [µg/mL] | Binder
15 | 0.379 | B1
16 | 0.723 | B2
17 | 0.248 | B3
18 | 0.596 | B4

The binders below were run against T3, human Jagged1 (human, UniProt P78504 34-1218) (assay: FMAT, hybridoma supernatant, 293T cells with human Jagged1).
T3 construct: whole, on cells
T3 sequence (P78504 34-1218): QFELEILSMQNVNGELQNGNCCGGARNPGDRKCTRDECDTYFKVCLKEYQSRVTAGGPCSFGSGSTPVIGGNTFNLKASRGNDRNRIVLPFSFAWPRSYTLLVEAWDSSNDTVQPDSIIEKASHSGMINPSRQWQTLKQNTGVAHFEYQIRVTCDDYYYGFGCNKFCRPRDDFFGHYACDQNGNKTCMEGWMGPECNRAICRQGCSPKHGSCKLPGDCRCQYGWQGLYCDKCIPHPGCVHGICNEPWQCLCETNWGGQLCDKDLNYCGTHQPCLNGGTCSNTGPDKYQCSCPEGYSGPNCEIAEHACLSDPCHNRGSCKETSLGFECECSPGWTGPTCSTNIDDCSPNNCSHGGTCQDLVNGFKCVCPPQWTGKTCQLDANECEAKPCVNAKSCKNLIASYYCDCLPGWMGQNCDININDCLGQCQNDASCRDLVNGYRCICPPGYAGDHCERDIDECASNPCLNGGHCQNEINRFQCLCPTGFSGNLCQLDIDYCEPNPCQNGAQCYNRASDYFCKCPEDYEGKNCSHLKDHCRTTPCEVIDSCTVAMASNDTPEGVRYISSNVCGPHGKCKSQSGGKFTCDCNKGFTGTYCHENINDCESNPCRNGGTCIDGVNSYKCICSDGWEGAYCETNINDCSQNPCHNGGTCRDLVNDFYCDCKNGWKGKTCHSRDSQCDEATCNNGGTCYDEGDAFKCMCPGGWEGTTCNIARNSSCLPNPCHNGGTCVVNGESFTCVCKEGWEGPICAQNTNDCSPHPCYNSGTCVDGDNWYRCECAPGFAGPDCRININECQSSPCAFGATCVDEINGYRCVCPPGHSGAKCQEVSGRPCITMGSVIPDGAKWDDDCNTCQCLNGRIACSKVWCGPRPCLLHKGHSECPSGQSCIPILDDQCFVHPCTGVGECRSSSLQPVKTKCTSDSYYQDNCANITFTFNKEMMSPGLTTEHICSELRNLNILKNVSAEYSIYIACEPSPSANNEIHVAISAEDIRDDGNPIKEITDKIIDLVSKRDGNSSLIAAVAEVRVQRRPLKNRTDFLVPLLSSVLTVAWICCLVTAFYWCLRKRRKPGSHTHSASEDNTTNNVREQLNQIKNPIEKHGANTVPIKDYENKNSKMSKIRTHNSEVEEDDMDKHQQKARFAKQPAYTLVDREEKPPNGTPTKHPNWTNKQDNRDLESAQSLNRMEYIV
How it was run: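 Binding was read by FMAT fluorescence after 3 h at room temperature on live 293T cells expressing the ligand, seeded at 3000 per well with 15000 mock-transfected cells in PBS/2% FBS. Hybridoma supernatants were added together with Cy5 anti-human IgG Fc (750 ng/ml final). Controls were Notch1/Fc (DLL4) and Notch3/Fc (Jagged1).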

Row | Count | FL1 | FL1 x count | Binder
19 | 2 | 2590 | 5180 | B1
20 | 5 | 5030 | 25200 | B2
21 | 0 | 0 | 0 | B3
22 | 0 | 0 | 0 | B4
